The nature of series [1]: Thiolytic cleavage of PEG-lysozyme conjugates (SDS-PAGE, RP-HPLC). The class given is physicochemical. The following applies: for cleavage under reducing SDS-PAGE conditions: 2% β-mercaptoethanol, 10 minutes at 70° C. As to the method:
In a study performed in support of the invention, lysozyme was used as a model polypeptide. As described in Example 8, lysozyme was incubated with mPEG-MeDTB-nitrophenylcarbonate in 0.1 M borate, at pH 9, at a 2:1 ratio of nitrophenylcarbonate to amino group of lysozyme. After reactions times of 15 minutes and 3 hours, separate samples were characterized by SDS-PAGE. A comparative conjugate was prepared by reacting lysozyme under the same conditions for 60 minutes with mPEG-nitrophenyl carbonate, which will form a stable mPEG-lysozyme conjugate.
Lanes 6-9 of the gel correspond to the samples in Lanes 1-4, but under reducing SDS-PAGE conditions, after treatment with 2% β-mercaptoethanol for 10 minutes at 70° C. […] In contrast, the stable mPEG-lysozyme conjugate was not affected upon incubation with a reducing agent, as evidenced by the agreement in the profile in Lane 9 and Lane 4.
A similar study was done using cysteine as a reducing agent on a purified mPEG5000-MeDTB-lysozyme conjugate. The results of the SDS-PAGE profile are shown in FIG. 12B, where an mPEG-MeDTB-lysozyme conjugate (Lane 1) treated with 1 mM cysteine (Lane 2), 5 mM cysteine (Lane 3), and 50 mM cysteine (Lane 4) are shown. Also shown are an mPEG-lysozyme conjugate (no cleavable linkage) before (Lane 5) and after treatment (Lane 6) with 50 mM cysteine. Lysozyme before (Lane 7) and after (Lane 8) with 50 mM cysteine are also shown. Lane 9 corresponds to protein markers.
Example 8 describes the methodology of the reverse-phase HPLC analysis. The trace at the bottom of FIG. 13A corresponds to neat lysozyme.
Reverse-phase HPLC analysis. RP-HPLC separation of PEG-lysozyme conjugates was achieved on a Vydac™ Protein C4 (4.6×150 mm) column eluted at 1 ml/min with aqueous acetonitrile gradient as follows. Each chromatography run started with a mobile phase A (30% acetonitrile, 5% 0.1 M sodium acetate pH 5, and 65% H2O), and over a period of 40 min ended with a mobile phase B (50% acetonitrile, 50% 0.1 M sodium acetate pH 5). UV detector set at 280 nm was used to monitor the chromatography. SDS-PAGE. Polyacrylamide gel electrophoresis under denaturing conditions was performed for conjugates characterization. Pre-cast NuPAGE® Bis-Tris gels (4-15%), NuPAGE®MES running buffer, molecular weight protein standards (Mark 12™), and Colloidal Coomassie® G-250 staining kit, were all obtained from Invitrogen, Carlsbad, Calif. […] Aliquots were taken out from the reaction vial at various time points and analyzed by RP-HPLC as described above (see FIG. 13A). […] Purified PEG-DTB-lysozyme containing only one PEG moiety per lysozyme was treated with 1 mM cysteine while the reaction was monitored by LC-MS. […]

Another series concerns bacterial cell wall. As to the kind of experiment: Bacterial cell wall lysis turbidometric assay of enzyme activity. The class given is biochemical. The following applies: after treatment with 1 mM cysteine.
Series [2] is described as follows: Blood lysozyme concentration after intravenous or subcutaneous administration. Format: in vivo. To be noted: rats. As to the method: The mPEG12000-MeDTB-lysozyme conjugates were administered in vivo to rats to characterize the in vivo behavior of the conjugate and its ability to cleave under physiologic conditions. In a first study, nine rats were divided into three test groups for administration of PEG-lysozyme, PEG-MeDTB-lysozyme, or free lysozyme. The test compound was administered intravenously or subcutaneously and blood samples were taken at defined times for analysis of blood lysozyme concentration.

Series [3] in a line: Cleavage of mPEG-MeDTB-lysozyme in plasma (SDS-PAGE stained for PEG). Format: in vitro ADME. The following applies: plasma for 18 hours. As to the method:
The samples were stained with iodine, for PEG visualization. Lane 1 corresponds to mPEG5000-MeDTB-lysozyme, Lane 2 corresponds to mPEG5000-MeDTB-lysozyme in cysteine buffer, Lane 3 corresponds to mPEG5000-MeDTB-lysozyme in plasma for 18 hours, Lane 4 corresponds to mPEG5000-MeDTB-lysozyme with 1,4-dithio-DL-threitol (DTT) added, Lane 5 is a plasma sample control, and Lane 6 is PEG molecular weight markers. […] Free PEG is liberated after treatment with low molecular weight thiol, such as DTT.

The next series deals with bovine serum albumin (Bos taurus, UniProt P02769). The series is described as follows: Cleavage of mPEG-DTB-lysozyme by albumin (SDS-PAGE stained for PEG). The class given is physicochemical. To be noted: treated with bovine serum albumin. The text has this: In another set of studies, it was shown that the thiol group of albumin was acting as the cleaving agent. Albumin is an abundant protein-thiol in plasma (Kratz, F. et al. J. Med. Chem., 45:5523 (2002)). The SDS-PAGE gel from this study is shown in FIG. 16B, where Lanes 1-12 were as follows:
The gel was stained for visibility of PEG. […] Lane 10 corresponds to mPEG-DTB-lysozyme treated with albumin and no spot on the gel corresponding to the mPEG-DTB-lysozyme conjugate is visible (compare to Lane 11), nor is a spot corresponding to released PEG visible (compare to Lane 4).

The values that follow come from patent US7592307B2, “Releasable linkage and compositions containing same” (Alza Corporation, priority 1999, dated 2009).

bovine serum albumin, sequence (P02769 25-607): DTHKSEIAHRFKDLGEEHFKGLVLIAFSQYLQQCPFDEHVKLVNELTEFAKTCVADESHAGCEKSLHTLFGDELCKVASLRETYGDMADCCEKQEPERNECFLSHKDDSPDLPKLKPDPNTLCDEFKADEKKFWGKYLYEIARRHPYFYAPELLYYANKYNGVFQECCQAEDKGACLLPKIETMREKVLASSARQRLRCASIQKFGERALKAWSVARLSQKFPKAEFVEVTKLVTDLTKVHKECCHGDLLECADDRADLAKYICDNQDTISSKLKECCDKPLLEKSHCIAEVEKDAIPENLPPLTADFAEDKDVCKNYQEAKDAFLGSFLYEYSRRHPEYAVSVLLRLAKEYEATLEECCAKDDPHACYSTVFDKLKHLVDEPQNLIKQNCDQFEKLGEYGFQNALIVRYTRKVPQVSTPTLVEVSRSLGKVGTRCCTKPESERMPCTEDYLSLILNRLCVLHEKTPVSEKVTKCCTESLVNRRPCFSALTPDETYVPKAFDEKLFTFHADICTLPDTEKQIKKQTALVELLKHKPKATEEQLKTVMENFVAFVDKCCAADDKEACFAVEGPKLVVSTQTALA

For mPEG-lysozyme [reference compound], the “cleavage under reducing SDS-PAGE conditions” value in series [1] is “not affected”. Besides, in the series on bacterial cell wall, the “cell-lysing (enzymatic) activity after thiolysis” value was “remained inactive”.
Take lysozyme: model polypeptide: in series [2] (intravenous), the T1/2α amounted to 0.25 h and the T1/2β worked out at 24.1 h. Further, the blood concentration decrease result in series [2] (intravenous, within one hour after administration) was “more than 10 fold”.
In series [2] (intravenous), PEG12000-lysozyme [reference compound] registered a T1/2α of 2.17 h and a T1/2β of 32.9 h.
In series [2] (intravenous), PEG12000-MeDTB-lysozyme registered a T1/2α of 3.71 h and a T1/2β of 37.2 h. In series [2] (subcutaneous), the “bioavailability (AUC)” value is recorded as “best bioavailability”.
mPEG5000-MeDTB-lysozyme: in series [1] (1 mM cysteine, 30 minute time point), the “cleavage and release of lysozyme (RP-HPLC)” value was “near completion”. The “cleavage under reducing SDS-PAGE conditions” value in series [1] was “decomposed to regenerate native lysozyme”. Also, in series [1] (treated with cysteine), the “cleavage by cysteine (SDS-PAGE stained for PEG)” value is reported as “cleaved in the presence of cysteine”. In addition, the cleavage in plasma entry in series [3] was “cleaved in plasma”. The “cell-lysing (enzymatic) activity after thiolysis” value with bacterial cell wall was “nearly all”; in the series with bacterial cell wall (listed as mPEG-DTB-Lysozyme), “Recovery of enzymatic activity”. In addition, in the series with bovine serum albumin, the cleavage by albumin result was “cleaved by the albumin”.
